Test results taken from article PMC5037460, “The structure of a furin-antibody complex explains non-competitive inhibition by steric exclusion of substrate conformers” (Scientific Reports, 2016).

Experiments:
human furin, wild type = biological target: T1, human furin, wild type (Homo sapiens); assay: SEC; analytical gel permeation chromatography, Superdex 200 5/150 GL, 10 mM Hepes, pH 7.5, 100 mM NaCl, 1 mM CaCl2; proteins premixed at equimolar ratio, ~23 μM each; 0.2 ml/min; peak fractions by SDS-PAGE; conditions: both partners purified
T1 construct: furin, human; also called Furin^WT; source: purified
T1 chain: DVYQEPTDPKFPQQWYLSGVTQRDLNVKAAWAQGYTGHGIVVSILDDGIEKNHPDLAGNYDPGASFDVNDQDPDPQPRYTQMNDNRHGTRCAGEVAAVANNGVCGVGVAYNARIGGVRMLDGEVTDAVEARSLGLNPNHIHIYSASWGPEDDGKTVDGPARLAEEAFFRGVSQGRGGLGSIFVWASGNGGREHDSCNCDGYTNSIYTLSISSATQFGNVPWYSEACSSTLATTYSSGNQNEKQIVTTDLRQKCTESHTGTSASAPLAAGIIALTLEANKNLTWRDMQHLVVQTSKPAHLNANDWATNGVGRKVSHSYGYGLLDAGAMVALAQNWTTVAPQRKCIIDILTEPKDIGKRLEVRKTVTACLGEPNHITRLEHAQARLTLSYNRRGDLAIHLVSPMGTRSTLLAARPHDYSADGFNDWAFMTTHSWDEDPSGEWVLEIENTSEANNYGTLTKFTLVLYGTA

[1] = biological target: T2, dec-RVKR-CMK-inhibited human furin (Homo sapiens, covalently inhibited by decanoyl-RVKR-chloromethylketone (dec-RVKR-CMK)); assay: crystal structure; furin:RVKR-CMK:Nb14 complex (~9 mg/ml in 10 mM Hepes, pH 7.5, 100 mM NaCl, 2 mM CaCl2) crystallised in 0.1 M sodium acetate, pH 5.6, 16-18% PEG 3350; two copies of the complex in the asymmetric unit; conditions: both partners purified
T2 construct: furin, human; also called furin:RVKR-CMK; source: purified, complex with Nb14 purified by GPC
T2 chain: T1 chain

binding result (human furin, wild type): binds | binding result [1]: binds
B1: inhibitory camelid antibody Nb14 (VHH)
VHH: QVQLQESGGGLVQPGGSLTLSCAASGFTFSSYSMYWVRQAPGKGLEWVSSINRVGSNTDYADSVKGRFTISRDNAKNTLYLQMNSLKSEDTALYYCAVGMYAAPPWRGQGTQVTVSS
notes: they are in the deposited structures PDB 5JMO (complex with furin) and PDB 5JMR (free Nb14); also called nanobody Nb14; source: purification in Supplementary Information
